In assay [1] the target is biotinylated pVHL-Elongin B-Elongin C complex (bio-VBC) (human) (UniProt P40337). As to the kind of experiment: SPR. Background: SPR reads the build-up and loss of mass on a sensor chip optically.
The target in another assay is VHL-LgBiT (human) (UniProt P40337).

Regarding “CDO1(Q99N) (from UniProt Q16878 1-200) (enzyme)”, the KD with compound 4 in assay [1] was more than 40 µM.

As for “SmBiT-CDO1 (from UniProt Q16878 1-200) (enzyme)”, the HiBiT degradation assay of CDO1 in HEK293T cells with compound 8; absDC50 with VHL-LgBiT (human) turned out to be 8 nM.

The record behind these values is publication doi:10.1101/2024.01.25.576086.
